Test results: patent US11707511B2, “Vaccine compositions and methods of using the same” (The Board of Supervisors of Louisiana State University and …, priority 2017, dated 2023)
Entries after “also recorded” stand apart in the source; their conditions may differ.

Experiments:
[1] = tested on: medically important Candida spp; assay: DC-based immunization with universal peptides, coverage of medically important Candida spp; type: in vivo; conditions: in words
Description: Novel universal peptides as described herein can be excellent peptide vaccines against C. ablicans infection.

C. albicans = assay: Active immunization with peptide-pulsed dendritic cells, disseminated candidiasis caused by C. albicans in mice; type: in vivo, Candida albicans
Method: (§1) Active Immunizations with peptide pulsed dendritic cells. […] It allows us to perform rapid throughput evaluation of candidate short peptides. When protective double universal peptide conjugate(s) become identified by this study, immunization approaches suitable for human use will be applied in further studies. All active vaccinations were conducted as previously described (6,7,9). DCs were pulsed in vitro with universal peptide as described before with minor modification by totally removing CFA for last booster (6). Briefly, DCs in culture were pulsed with the peptide antigen (1 μM) on day 6. On day 7, PGE2 (10^-7M) was added along with LPS (2 μg/ml, Sigma) for 24 h to induce DC maturation. On day 9, antigen-pulsed DCs were washed extensively and […] in 200 μl DPBS were given by intraperitoneal (i.p.) route as the priming dose to mice. The mice were boosted i.p. at day 14 and day 28 with fresh antigen-pulsed DCs without adjuvant.
Table 2 lists universal peptide vaccines that induced protection against disseminated candidiasis caused by C. albicans in mice. The universal peptide vaccines listed in Table 1 are expressed at high homology by all analyzed medically important Candida species in addition to C. albicans (see details at Table 2). By dendritic cell (DC) based immunization approach as described herein, each of the universal peptide vaccines was able to protect mice against disseminated candidiasis caused by C. albicans, with the survival rate 80-100% up to 80-120 days post challenge.
(§2) To perform rapid throughput evaluation of peptide vaccine candidates, immunizations were done by use of the similar antigen-pulsed DC based vaccine strategy with modification by totally removing CFA from vaccine formula. Fba peptide was used as positive control.

[2] = Induction of specific anti-peptide antibody responses in immunized mice; type: in vivo; conditions: BALB/c mice; peptide-pulsed DC; data not shown
Description: as §2
The double chimeric peptide conjugate vaccines have been tested for their abilities to induce specific anti-peptide antibodies and protective immunity against the disease caused by C. albicans. […] The enhancement in vaccine efficacy was evidenced by both increased survival and reduced or non-detectable fungal burden (colony forming units, CFUs) in kidneys of animals.

[3] = tested on: C. tropicalis (ATCC 20336); assay: Peptide-vaccinated mice challenged with lethal dose of C. tropicalis; type: in vivo
Method: as §1
Peptide-vaccinated mice were challenged with lethal dose of live C. tropicalis cells (ATCC 20336; i.v. challenge dose: 1×10^6/mouse).

C. albicans 3153A = assay: Passive transfer of mAbs or mAb cocktails i.p. before lethal i.v. challenge, mouse model of human disseminated candidiasis; type: in vivo, Candida albicans; conditions: Table 14; for Protection of adsorbed mAb: mAb removed by absorption with Candida cells before transfer; for Protection / Protection (grade word): single mAb, C. albicans
Method: Passive transfer of MAbs by intraperitoneal (i.p.) route. The preventive effect of peptide-specific mAbs listed in Table 3 and Table 4 in naïve mice was examined by passive transfer experiments. […] For testing, mice received 0.5 ml of each mAb or 1 ml of two mAbs in combination (0.5 ml of each) intraperitoneally. […] The negative control materials tested in mice were single mAb or DPBS. Control mice received 0.5 ml of the DPBS diluents or single mAb treatment. For each condition, 6- to 8-week-old female BALB/c mice (NCI) were given 0.5 ml of test mAb, or 1 ml two mAb cocktails or control materials intraperitoneally, followed 4 h later by 0.1 ml intravenously of defined lethal dose of yeast cells per milliliter of DPBS. Mice were divided into groups with five mice each and three independent experiments were carried out. In some experiments, mice were given the same dose of mAbs or control materials on every other day post-challenge for two weeks, as compared to the protective efficacy of mAb in combinations. All mice were sacrificed on day 50. For animal groups that were challenged non-albicans candida species, determined optimal challenge doses were applied for each candida strain.
The hybridoma clones that produce the universal peptide specific mAbs listed above were generated from mice vaccinated with peptide-pulsed dendritic cell (DC) preparation as described previously (6). The isotype of mAb was determined with a Mouse Monoclonal Antibody Isotyping Kit (Pierce, USA). […] In detail, BALB/c mice were given an i.p dose of each mAb four hours before hematogenous challenged with a lethal dose of C. albicans3153A cells. […] Importantly, passive protection was prevented by removal of the mAbs by absorption with Candida cells before transfer, which provided strong additional evidence for the protection being due to the mAb.
The three cell wall proteins were selected because of expression during human candidiasis and cell wall association, and included fructose-bisphosphate aldolase (Fba); methyltetrahydropteroyltriglutamate-homocysteine methyltransferase (Met6); hyphal wall protein-1 (Hwp1). The hybridoma clones listed at Table 5, which produce the peptide specific mAbs, were generated from mice vaccinated with peptide-pulsed dendritic cell (DC) preparation as described previously (6). The isotype of mAb was determined with a Mouse Monoclonal Antibody Isotyping Kit (Pierce, USA). […] Importantly, passive protection was prevented by removal of the mAbs by absorption with Candida cells before transfer, which provided strong additional evidence for the protection being due to the mAb).
The preventive effect of each universal peptide-specific mAb was examined by passive transfer experiments. […] For testing, 5 mice of each tested group received 0.5 ml of each mAb intraperitoneally. The negative control materials tested in mice were mAbs absorbed with C. albicans yeast cells (3153A) and DPBS. Control mice received 0.5 ml of the DPBS diluents or adsorbed mAb solution. For each condition, 6- to 8-week-old female BALB/c mice (NCI) were given 0.5 ml of test mAb, or control materials intraperitoneally, followed 4 h later by 0.1 ml intravenously of a suspension containing lethal dose of Candida cells per milliliter of DPBS. Mice were divided into groups with five mice each and three independent experiments were carried out. We have developed neutropenic murine models of disseminated infection by C. glabrata, C. tropicalis and C. parapsilosis. To induce neutropenia, naïve mice received a 200 mg/kg dose of cyclophosphamide (CY) by i.p. on day −3. Prolonged neutropenia were maintained for 30-50 days by giving each animal a 150 mg/kg dose of CY by i.p. every 10 days after infection.

C. auris AR-0386 = assay: Passive transfer of mAbs or two mAbs in combination in A/J mouse model of invasive C. auris infection; type: in vivo, Candida auris
Method: A. Complement protein C5-defecient A/J mice were treated with one of the five mAb or with DPBS as a vehicle control. The following day, mice were challenged with 1×10^8 C. auris cells/100 ul DPBS dose per mouse. […] B. Fungal burdens in the kidneys (top), heard (center), and brain (bottom).
Identified protective mAbs were obtained by use of standard hybridoma technique and purified by use of protein A/G. A/J mice were given an i.p. dose of either single mAb or two mAbs in combination 24 hours before hematogensous challenge with a lethal dose (2×108) of C. auris AR-0386 live cells. Mice received either 9G2F5 alone or 6H1G8 alone or 9F2G5 and 3H7E3 in combination had 40% survival rate respectively, with prolonged survival as compared to control animals that received DPBS buffer control.
Evaluation and validation of a panel of peptide-specific monoclonal antibodies (mAbs) as a passive immunization strategy protect against invasive C. auris infection in established A/J mouse model of human disease.
The monoclonal antibodies used in this experiment were: • 6H1G8 (IgG2b), α-Hwp1 (Hyphal wall protein) • 3E2G2 (IgG2b), α-Fba (Fructose bisphosphate aldolase) • 10E7E2 (IgG1), α-GPV-P3 (General peptide vaccine 3 from Phosphoglycerate kinase) • 9F2G5 (IgG2a), α-Pgk1 (Phosphoglycerate kinase) • 3H7E3 (IgG1), α-Met6 (Methyltetrahydropteroyltriglutamate)

AILGGSKVSDKI (CAILGGSKVSDKI) [GPV-P1]
coverage against medically important Candida spp [1]: able to provide broad coverage

FAIPAINVTSSSTVVAALE [Fba3]
protection against disseminated candidiasis caused by C. albicans (C. albicans; FIG. 2, antigen-pulsed DC vaccine without CFA): good protective responses
CFUs in kidneys as compared to controls (C. albicans; FIG. 2 B and D): reduced or non-detectable CFUs
specific antibody responses [2]: able to induce specific antibody responses
survival ([3]; FIG. 3A, i.v. challenge 1×10^6/mouse, up to 80 days): 80%
live fungal cells (CFU) in kidneys as compared to controls ([3]; FIG. 3B, p<0.001): significantly reduced live fungal cells

FWVNPDCGLKTR (CFWVNPDCGLKTR; (1)..(1) May or may not be present) [GPV-M1]
coverage against medically important Candida spp [1]: able to provide broad coverage

IVIIGGGDTATVAKK (CIVIIGGGDTATVAKK; (1)..(1) May or may not be present) [GPV-P3]
coverage against medically important Candida spp [1]: able to provide broad coverage

PAINVTSSSTVVAALEAA [FbaU2]
specific antibody responses [2]: able to induce specific antibody responses

SSSTVVAAL [Fba4]
specific antibody responses [2]: able to induce specific antibody responses

TTTIGSFPQTKDIR (CTTTIGSFPQTKDIR; (1)..(1) May or may not be present) [GPV-M2]
coverage against medically important Candida spp [1]: able to provide broad coverage

B1: 6H1G8: IgG2b mAb of hybridoma 6H1G8, specific for Hwp1 peptide (antibody)
heavy: EVQLQQSGPELVKPGASVKISCKASGYSITGYYMHWVKQSHVKSLEWIGRINPYTGATSYTQNFKDKASLTVDKSSSTAYMELLSLKSEDSAVYYCAKGGGRSSYWYFDVWGAGTAVTVSSAKTTPPSVYPLAPGCGDTTGSSVTLGCLVKGYFPESVTVTWNSGSLSSSVHTFPALLQSGLYTMSSSVTVPSSTWPSQTVTCSVAHPASSTTVDKKLEPSGPISTINPCPPCKECHKCPAPNLEGGPSVFIFPPNIKDVLMISLTPKVTCVVVDVSEDDPDVQISWFVNNVEVHTAQTQTHREDYNSTIRVVSTLPIQHQDWMSGKEFKCKVNNKDLPSPIERTISKIKGLVRAPQVYILPPPAEQLSRKDVSLTCLVVGFNPGDISVEWTSNGHTEENYKDTAPVLDSDGSYFIYSKLNMKTSKWEKTDSFSCNVRHEGLKNYYLKKTISRSPGK
light: DIQMTQTTSSLSASLGDRVTISCSASQAISNYLNWYQQKPDGTIKLLIYYTSSLHSGVPSRFSGSGSGTDYSLTISNLEPEDIATYYCQQYSKLPWTFGGGTKLEIKRADAAPTVSIFPPSSEQLTSGGASVVCFLNNFYPKDINVKWKIDGSERQNGVLNSWTDQDSKDSTYSMSSTLTLTKDEYERHNSYTCEATHKTSTSPIVKSFNRNEC
Protection of adsorbed mAb (C. albicans 3153A): None
Protection (C. albicans 3153A): (70-80%)
Protection (grade word) (C. albicans 3153A): High
fungal burdens in targeted organs (C. auris AR-0386; A/J mouse model, in words): lowest fungal burdens in all organs; also recorded: able to almost clear fungal burden
protection against C. auris invasive infection (C. auris AR-0386; A/J mouse model, in words): protect against C. auris invasive infection; also recorded: best protection
survival (C. auris AR-0386; FIG. 15A, A/J mice, 1×10^8 C. auris cells, experiment terminated 40 days post challenge): 50%
fungal burden in the kidneys (C. auris AR-0386; FIG. 15B, one treated mouse): Non-detectible levels of fungal burden
fungal burden in the heart and brain (C. auris AR-0386; FIG. 15B, several mice): non-detectible levels of fungal burden
survival rate (C. auris AR-0386; FIG. 16, A/J mice, mAb(s) i.p. 24 hours before lethal dose (2×108) of C. auris AR-0386): 40%

B2: 2B10C1: IgG1 mAb of hybridoma 2B10C1, specific for Met6 peptide; VH SEQ ID NO: 60, VL SEQ ID NO: 62 (antibody, V domains shown)
VH: MGWSYIILFLLATATRVHSQVQLQQPGAEVVRPGASVKVSCKASGYTVSSYWMSWVKQRPEQGLEWIGRIDPYDSETHYNQKFKDKAILTVDKSSSTAYMQLSSLTSEDSAVYYCARTAASFDYWGQGTTLTVSS
VL: MKLPVRLLVLMFWIPASSSDVVMTQTPLSLPVSLGDQASISCRSSQSLVHSNGNSYLHWYLQKPGQSPKLLIYKVSNRFSGVPDRFSGSGSGTDFTLNISRVEAEDLGVYFCSQSTHVPFTFGSGTKLEIK
Protection of adsorbed mAb (C. albicans 3153A): None
Protection (C. albicans 3153A): (80-100%)
Protection (grade word) (C. albicans 3153A): High
Protection against C. auris (C. auris AR-0386; Table 19, A/J strain mice): 60-90%
Protection against C. auris (grade word) (C. auris AR-0386; Table 19, A/J strain mice): High
